In patent US8906844B2 (SYNTONIX PHARMACEUTICALS, dated 2014):
Positions of bridges follow the written chain, without caps; N, C: chain ends. Non-standard residues stand in square brackets, D forms with d. No end group written: not given here. Pen = CC(C)(S)[C@H](N)C(=O)O; NMeA = CN[C@@H](C)C(=O)O

Key:
[1] = biological target: T1, soluble human FcRn (shFcRn) (human, UniProt P55899 24-297; P61769 21-119, biotinylated with Sulfo-NHS-LC-Biotin in the ELISA; amine-coupled to a CM5 chip in SPR); test: SPR, pH 6
T1 construct: also called biotinylated shFcRn
Experimental: The following steps were performed to cross-link soluble human or cynomolgus FcRn to the dextran surface of a CM5 sensor chip (Biacore AB, Uppsala, Sweden) by an amine coupling reaction involving 1-ethyl-(3-dimethylaminopropyl)-carbodiimide hydrochloride (EDC) (Biacore AB, Uppsala, Sweden) and N-hydroxysuccinimide (NHS) (Biacore AB, Uppsala, Sweden) as recommended by Biacore (BIAapplications Handbook, version AB, section 4.2, Biacore AB, Uppsala, Sweden). The FcRn protein was diluted in 50 mM sodium acetate, pH 4.5 (Biacore AB, Uppsala, Sweden) to a concentration of 10 to 30 µg/ml and used to coat one flow cell on the sensor chip. Residual sites on the FcRn flow cell were blocked with 1 M ethanolamine hydrochloride pH 8.5 (Biacore AB, Uppsala, Sweden). A control flow cell was blocked with ethanolamine for reference subtraction. For analysis of the monomeric peptides, FcRn was coated to a final density of 4000-5000 response units (RU). For analysis of the peptide dimers, FcRn was coated to a density of 2000-2500 RU. All SPR measurements were performed using a BIACORE 3000 Instrument (Biacore AB Uppsala, Sweden). For measurements done at either pH 6 or pH 7.4, experiments were performed in 50 mM phosphate, 100 mM sodium chloride, 0.01% surfactant P20 (Biacore AB, Uppsala, Sweden).
A. Representative Procedure for the Determination of Binding Constant of Monomeric Peptides Ten 2-fold dilutions of the peptide were injected over the FcRn-CM5 chip at a rate of 20 µl/min for 2 min. The peptide was dissociated from the chip for 2.5 minutes with buffer. Any remaining peptide was removed from the chip with a 30 second injection of HBS-P buffer (Biacore AB, Uppsala, Sweden) at a rate of 30 µl/min. Sensorgrams were generated and analyzed using BiaEval software version 3.1 (Biacore AB, Uppsala, Sweden). The equilibrium RU observed for each injection was plotted against concentration. The equilibrium K_D values were derived by analysis of the plots using the steady state affinity model included in the BiaEval software.

[2] = biological target: T1, soluble human FcRn (shFcRn); test: competition ELISA vs human IgG
Experimental: The wells were coated with 100 μl/well of 1 μg/ml biotinylated-shFcRn in Buffer A. The plate was sealed and incubated at 37° C. for 2 hours. Afterwards, the plate was washed with 200 μl/well of Buffer B (Buffer B: 100 mM MES pH 6, 150 mM NaCl, 0.5% BSA IgG-free (Jackson ImmunoResearch, West Grove, Pa.), 0.05% Tween-20). […] To allow for mixing, the plate was rocked for 2 minutes, sealed and incubated at 37° C. for 2 hours. […] The plate was covered, incubated for 30 minutes at room temperature and washed 4 times with 200 μl/well of ice-cold buffer B. SureBlue TMB substrate solution (100 μl/well, KPL, Gaithersburg, Md.) was added and the plate was allowed to incubate at room temperature until color developed, which took 5 to 10 minutes. Once color developed, 100 μl/well of TMB stop solution (KPL, Gaithersburg, Md.) was added and the absorbance was measured at 450 nm.

Binder | Kd [1] [nM] | IC50 [2] [nM]
QRFXTGHFXXLYPCNGP (Pen4; D-Phe9; D-Pro10; disulfide; C-terminal amide) [Peptide No. 150] | 720 | 5900
QRFXTGHFXGLYPCNGP (Pen4; D-His9; disulfide; C-terminal amide) [Peptide No. 50] | 410 | 3600
RFXTGHFXXYPC (Pen3; X8 = 3(R)-amino-2-oxo-1-azepine acetic acid; NMeLeu9; disulfide; C-terminal amide) [Peptide No. 239] | 44 | 620
QRF[Pen]TGHF[dF]GPYPCNGP-NH2 (disulfide 4-14; N-terminus assumed; SMILES C[C@@H](O)[C@@H]1NC(=O)[C@@H](NC(=O)[C@H](Cc2ccccc2)NC(=O)[C@H](CCCNC(=N)N)NC(=O)[C@@H](N)CCC(N)=O)C(C)(C)SSC[C@@H](C(=O)N[C@@H](CC(N)=O)C(=O)NCC(=O)N2CCC[C@H]2C(N)=O)NC(=O)[C@@H]2CCCN2C(=O)[C@H](Cc2ccc(O)cc2)NC(=O)[C@@H]2CCCN2C(=O)CNC(=O)[C@@H](Cc2ccccc2)NC(=O)[C@H](Cc2ccccc2)NC(=O)[C@H](Cc2c[nH]cn2)NC(=O)CNC1=O) [Peptide No. 155] | 18300 | 39000
QRFXTGHFXGLYPCNGP (Pen4; D-Phe9; disulfide; C-terminal amide) [Peptide No. 52] | 510 | 2800
QRFXTGHFGGXYPCNGP (Pen4; NMeLeu11; disulfide; C-terminal amide) [Peptide No. 113] | 86 | 1600
QRFC[NMeA]GHFGGLYPCNGP-NH2 (disulfide 4-14; N-terminus assumed; SMILES CC(C)C[C@@H]1NC(=O)CNC(=O)CNC(=O)[C@H](Cc2ccccc2)NC(=O)[C@H](Cc2c[nH]cn2)NC(=O)CNC(=O)[C@H](C)N(C)C(=O)[C@@H](NC(=O)[C@H](Cc2ccccc2)NC(=O)[C@H](CCCNC(=N)N)NC(=O)[C@@H](N)CCC(N)=O)CSSC[C@@H](C(=O)N[C@@H](CC(N)=O)C(=O)NCC(=O)N2CCC[C@H]2C(N)=O)NC(=O)[C@@H]2CCCN2C(=O)[C@H](Cc2ccc(O)cc2)NC1=O) [Peptide No. 196] | 18000 | 169000

More lines, now with the values ahead:

Kd [1] [nM] | IC50 [2] [nM] | Binder
68 | 1000 | QRFXTGHFGXWYPCNGP (Pen4; Sar10; disulfide; C-terminal amide) [Peptide No. 238]
240 | 1300 | QRFXTGHFXGXYPCNGP (Pen4; D-Phe9; NMeLeu11; disulfide; C-terminal amide) [Peptide No. 153]
1000 | 5500 | QRF[Pen][NMeA]GHFGGLYPCNGP-NH2 (disulfide 4-14; N-terminus assumed; SMILES CC(C)C[C@@H]1NC(=O)CNC(=O)CNC(=O)[C@H](Cc2ccccc2)NC(=O)[C@H](Cc2c[nH]cn2)NC(=O)CNC(=O)[C@H](C)N(C)C(=O)[C@@H](NC(=O)[C@H](Cc2ccccc2)NC(=O)[C@H](CCCNC(=N)N)NC(=O)[C@@H](N)CCC(N)=O)C(C)(C)SSC[C@@H](C(=O)N[C@@H](CC(N)=O)C(=O)NCC(=O)N2CCC[C@H]2C(N)=O)NC(=O)[C@@H]2CCCN2C(=O)[C@H](Cc2ccc(O)cc2)NC1=O) [Peptide No. 213]
230 | 1400 | QRFXTGHFGXLYPCNGP (Pen4; D-Pro10; disulfide; C-terminal amide) [Peptide No. 40]
88000 | > 125000 | QRFXTXHFGGLYPCNGP (Pen4; Sar6; disulfide; C-terminal amide) [Peptide No. 108]
230 | 3200 | QRFXTGHFXGXYPCNGP (Pen4; D-Ala9; NMeLeu11; disulfide; C-terminal amide) [Peptide No. 154]
2600 | 9400 | QRFXTGHFXGLYPCNGP (Pen4; D-Ile9; disulfide; C-terminal amide) [Peptide No. 51]
3300 | 21000 | QRFXTGHFXXLYPCNGP (Pen4; D-Pro9; D-Pro10; disulfide; C-terminal amide) [Peptide No. 152]
